The chains are these.
B1: GLTSCR2 (parent)
chain: LARRRRRRQARREAEADKPRRLGR
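Also: lentivirally expressed fusions sorted by FACS into six bins by GFP to DsRed ratio, PSI derived from sequencing read proportions per bin multiplied by bin number.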

Variants of B1 are the subject of the data set. As to the kind of experiment: protein stability index of a GFP-peptide fusion (GPS, HEK-293T) (PSI 1-6); higher = more stable. The settings on record: c terminus: a fixed tail appended.
On to LARRRRRRQARRNAEADKPRRLGR [E13N], for which the protein stability index was 4.59.
As for LARRRRRRQARRWAEADKPRRLGR [E13W], the figure is 4.51; as for LARRRRRRQARRYAEADKPRRLGR [E13Y], 4.4; as for LARRRRRRQARRTAEADKPRRLGR [E13T], 4.83.
Turning to LARRRRRRQARRPAEADKPRRLGR [E13P], the protein stability index worked out at 4.36.
As for LARRRRRRQARRRAEADKPRRLGR [E13R], the figure is 4.4; as for LARRRRRRQARRKAEADKPRRLGR [E13K], 4.37.
As for LARRRRRRQARRCAEADKPRRLGR [E13C], the figure is 5.01.
As for LARRRRRRQARRIAEADKPRRLGR [E13I], the figure is 4.73.
Turning to LARRRRRRQARRAAEADKPRRLGR [E13A], the protein stability index was determined as 4.51.
For the variant LARRRRRRQARRHAEADKPRRLGR [E13H], the protein stability index is 4.13.
As for LARRRRRRQARRMAEADKPRRLGR [E13M], the protein stability index came to 3.72.
The figure for LARRRRRRQARRQAEADKPRRLGR [E13Q] is 4.88; for LARRRRRRQARRDAEADKPRRLGR [E13D] it is 4.61.
As for LARRRRRRQARRGAEADKPRRLGR [E13G], the figure is 5.01; as for LARRRRRRQARRFAEADKPRRLGR [E13F], 4.04.
Take LARRRRRRQARRLAEADKPRRLGR [E13L]: the protein stability index is 4.46.
The figure for LARRRRRRQARRVAEADKPRRLGR [E13V] is 4.35; for LARRRRRRQARRSAEADKPRRLGR [E13S] it is 4.26; for LARRRRRRQAWREAEADKPRRLGR [R11W] it is 4.53.
The figure for LARRRRRRQASREAEADKPRRLGR [R11S] is 4.74; for LARRRRRRQAQREAEADKPRRLGR [R11Q] it is 4.26.
As for LARRRRRRQAVREAEADKPRRLGR [R11V], the figure is 4.91.
Turning to LARRRRRRQAYREAEADKPRRLGR [R11Y], the protein stability index is 4.95.
The figure for LARRRRRRQATREAEADKPRRLGR [R11T] is 5.06.
As for LARRRRRRQAPREAEADKPRRLGR [R11P], the figure is 4.62.
Regarding LARRRRRRQANREAEADKPRRLGR [R11N], the protein stability index was 3.94.
As for LARRRRRRQAMREAEADKPRRLGR [R11M], the figure is 4.47; as for LARRRRRRQARREDEADKPRRLGR [A14D], 4.49.
Turning to LARRRRRRQARRETEADKPRRLGR [A14T], the protein stability index is 4.97.
As for LARRRRRRQARREPEADKPRRLGR [A14P], the figure is 4.97; as for LARRRRRRQARREMEADKPRRLGR [A14M], 4.34.
As for LARRRRRRQARRESEADKPRRLGR [A14S], the figure is 4.7; as for LARRRRRRQARRENEADKPRRLGR [A14N], 4.44.
The figure for LARRRRRRQARREEEADKPRRLGR [A14E] is 5.11; for LARRRRRRQARREKEADKPRRLGR [A14K] it is 4.61; for LARRRRRRQARREYEADKPRRLGR [A14Y] it is 4.6.
On to LARRRRRRQARREFEADKPRRLGR [A14F], for which the protein stability index is 4.11.
With LARRRRRRQARRELEADKPRRLGR [A14L], the protein stability index turned out to be 4.33.
In the case of LARRRRRRQARREREADKPRRLGR [A14R], the protein stability index is 4.52.
The figure for LARRRRRRQARREGEADKPRRLGR [A14G] is 3.91; for LARRRRRRQARREVEADKPRRLGR [A14V] it is 4.58; for LARRRRRRQARREWEADKPRRLGR [A14W] it is 4.45.
As for LARRRRRRQARREHEADKPRRLGR [A14H], the figure is 4.34; as for LARRRRRRQARREQEADKPRRLGR [A14Q], 4.8; as for LARRRRRRQARREIEADKPRRLGR [A14I], 4.28.
As for LARRRRRRQARREAEDDKPRRLGR [A16D], the figure is 4.82.
As to LARRRRRRQARREAEFDKPRRLGR [A16F], the protein stability index was found to be 4.4.
The figure for LARRRRRRQARREAELDKPRRLGR [A16L] is 3.29; for LARRRRRRQARREAEPDKPRRLGR [A16P] it is 4.61; for LARRRRRRQARREAEGDKPRRLGR [A16G] it is 4.09.
As for LARRRRRRQARREAEHDKPRRLGR [A16H], the protein stability index is 5.25.
As for LARRRRRRQARREAEMDKPRRLGR [A16M], the figure is 4.97; as for LARRRRRRQARREAENDKPRRLGR [A16N], 4.91.
As for LARRRRRRQARREAEKDKPRRLGR [A16K], the figure is 4.32; as for LARRRRRRQARREAEIDKPRRLGR [A16I], 4.22; as for LARRRRRRQARREAEEDKPRRLGR [A16E], 4.8.
As for LARRRRRRQARREAECDKPRRLGR [A16C], the figure is 4.48; as for LARRRRRRQARREAMADKPRRLGR [E15M], 4.72; as for LARRRRRRQARREAGADKPRRLGR [E15G], 4.43.
For the variant LARRRRRRQARREAAADKPRRLGR [E15A], the protein stability index turned out to be 4.78.
LARRRRRRQARREACADKPRRLGR [E15C]: the protein stability index turned out to be 4.68.
As for LARRRRRRQARREALADKPRRLGR [E15L], the protein stability index turned out to be 4.16.
The figure for LARRRRRRQARREAYADKPRRLGR [E15Y] is 4.21.
The figure for LARRRRRRQARREANADKPRRLGR [E15N] is 5.4.
The figure for LARRRRRRQARREATADKPRRLGR [E15T] is 4.22; for LARRRRRRQARREAVADKPRRLGR [E15V] it is 4.64; for LARRRRRRQARREAHADKPRRLGR [E15H] it is 4.55.
For LARRRRRRQARREAPADKPRRLGR [E15P], the protein stability index was found to be 4.44.
As for LARRRRRRQARREAKADKPRRLGR [E15K], the figure is 3.6; as for LARRRRRRQARREAWADKPRRLGR [E15W], 3.87.
As for LARRRRRRQARREAFADKPRRLGR [E15F], the figure is 4.36; as for LARRRRRRQARREAIADKPRRLGR [E15I], 4.63.
Regarding LARRRRRRQARREASADKPRRLGR [E15S], the protein stability index amounted to 4.12.
As for LARRRRRRQARREARADKPRRLGR [E15R], the figure is 3.99; as for LARRRRRRQARREAQADKPRRLGR [E15Q], 4.52; as for LARRRRRRQARREADADKPRRLGR [E15D], 4.55.
As for LARRRRRRQARMEAEADKPRRLGR [R12M], the figure is 4.87; as for LARRRRRRQARGEAEADKPRRLGR [R12G], 4.45; as for LARRRRRRQARIEAEADKPRRLGR [R12I], 4.72.
Consider LARRRRRRQARHEAEADKPRRLGR [R12H], for which the protein stability index amounted to 4.74.
The figure for LARRRRRRQARTEAEADKPRRLGR [R12T] is 4.98; for LARRRRRRQARWEAEADKPRRLGR [R12W] it is 4.34.
For LARRRRRRQARAEAEADKPRRLGR [R12A], the protein stability index was 4.71.
As for LARRRRRRQAREEAEADKPRRLGR [R12E], the figure is 4.29.
Turning to LARRRRRRQARVEAEADKPRRLGR [R12V], the protein stability index was found to be 5.34.
In the case of LARRRRRRQARDEAEADKPRRLGR [R12D], the protein stability index was found to be 4.73.
As for LARRRRRRQARCEAEADKPRRLGR [R12C], the figure is 4.31; as for LARRRRRRQARLEAEADKPRRLGR [R12L], 3.76.
With LARRRRRRQARNEAEADKPRRLGR [R12N], the protein stability index came to 4.11.
The figure for LARRRRRRQARKEAEADKPRRLGR [R12K] is 4.55; for LARRRRRRQARFEAEADKPRRLGR [R12F] it is 4.17.
With LARRRRRRQARYEAEADKPRRLGR [R12Y], the protein stability index turned out to be 4.51.
As for LARRRRRRQARPEAEADKPRRLGR [R12P], the figure is 4.6.
